# Key:
# [1] = target: SIRPα protein with hFc tag (SIRPα-hFc) (UniProt P78324); test: ELISA on coated SIRPα-hFc 1 µg/mL; control 0.04 µg/ml
# [2] = target: SIRPα protein with hFc tag (SIRPα-hFc) (UniProt P78324); test: ELISA on coated SIRPα-hFc 1 µg/mL; control 0.00001 µg/ml
# [3] = target: SIRPα protein with hFc tag (SIRPα-hFc) (UniProt P78324); test: ELISA on coated SIRPα-hFc 1 µg/mL; control 0.2 µg/ml
# [4] = target: SIRPα protein with hFc tag (SIRPα-hFc) (UniProt P78324); test: ELISA on coated SIRPα-hFc 1 µg/mL; control 0.0003 µg/ml
# [5] = target: SIRPα protein with hFc tag (SIRPα-hFc) (UniProt P78324); test: ELISA on coated SIRPα-hFc 1 µg/mL; control 0.008 µg/ml
# [6] = target: SIRPα protein with hFc tag (SIRPα-hFc) (UniProt P78324); test: ELISA on coated SIRPα-hFc 1 µg/mL; control 1 µg/ml
# [7] = target: SIRPα protein with hFc tag (SIRPα-hFc) (UniProt P78324); test: ELISA on coated SIRPα-hFc 1 µg/mL; control 0.0001 µg/ml
# [8] = target: SIRPα protein with hFc tag (SIRPα-hFc) (UniProt P78324); test: ELISA on coated SIRPα-hFc 1 µg/mL; control 0.0016 µg/ml
# [9] = target: human CD47, full length, on transfected cells (human) (UniProt Q08722); test: FACS, HEK293 clone 293F-hCD47 1B11
# [10] = target: human CD47, full length, on transfected cells (human) (UniProt Q08722); test: FACS, HEK293 clone 293F-hCD47 1A8
# [11] = target: human CD47, full length, on transfected cells (human) (UniProt Q08722); test: FACS, HEK293 clone 293F-hCD47 1E8
# [12] = target: human CD47, full length, on transfected cells (human) (UniProt Q08722); test: FACS, HEK293 clone 293F-hCD47 1C4
# [13] = target: human CD47, full length, on transfected cells (human) (UniProt Q08722); test: FACS, HEK293 clone 293F-hCD47 1C2
# [14] = target: human CD47, full length, on transfected cells (human) (UniProt Q08722); test: FACS, HEK293 clone 293F-hCD47 1B8
# [15] = target: human CD47, full length, on transfected cells (human) (UniProt Q08722); test: FACS, HEK293 clone 293F-hCD47 1F6
# [16] = target: human CD47, full length, on transfected cells (human) (UniProt Q08722); test: FACS, HEK293 clone 293F-hCD47 1B4
# [17] = target: human CD47, full length, on transfected cells (human) (UniProt Q08722); test: FACS, HEK293 clone 293F-hCD47 2E2
# [18] = target: human CD47, full length, on transfected cells (human) (UniProt Q08722); test: FACS, HEK293 clone 293F-hCD47 1F11
# [19] = target: human CD47, full length, on transfected cells (human) (UniProt Q08722); test: FACS, HEK293 clone 293F-hCD47 1D10
# [20] = target: human CD47, full length, on transfected cells (human) (UniProt Q08722); test: FACS, HEK293 clone 293F-hCD47 1C8
# [21] = target: human CD47, full length, on transfected cells (human) (UniProt Q08722); test: FACS, HEK293 clone 293F-hCD47 1B6
# [22] = target: human CD47, full length, on transfected cells (human) (UniProt Q08722); test: FACS, HEK293 clone 293F-hCD47 1B5
# [23] = target: human CD47, full length, on transfected cells (human) (UniProt Q08722); test: FACS, HEK293 clone 293F-hCD47 1F8
# [24] = target: human CD47, full length, on transfected cells (human) (UniProt Q08722); test: FACS, HEK293 clone 293F-hCD47 1F10
# Sequence of SIRPα protein with hFc tag (SIRPα-hFc) (P78324 31-370): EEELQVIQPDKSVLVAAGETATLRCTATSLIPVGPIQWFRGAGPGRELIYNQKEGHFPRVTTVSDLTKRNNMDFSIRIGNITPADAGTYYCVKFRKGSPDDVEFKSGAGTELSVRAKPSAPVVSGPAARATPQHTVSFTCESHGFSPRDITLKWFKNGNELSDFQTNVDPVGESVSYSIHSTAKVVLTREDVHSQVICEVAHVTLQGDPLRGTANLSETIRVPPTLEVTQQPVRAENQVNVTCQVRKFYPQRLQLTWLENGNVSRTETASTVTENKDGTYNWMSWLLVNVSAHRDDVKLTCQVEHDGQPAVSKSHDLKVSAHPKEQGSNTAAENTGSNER
substance,measurement,setting,value
Control protein (non-CD47 fusion protein),OD450 nm,[1],0.1
same,OD450 nm,[2],0.06
same,OD450 nm,[3],0.11
same,OD450 nm,[4],0.07
same,OD450 nm,[5],0.06
same,OD450 nm,[6],0.19
same,OD450 nm,[7],0.07
same,OD450 nm,[8],0.08
IgG subtype control (antibody),Mean fluorescence intensity,[9],2.87
same,Positive cells (%),[9],4.7%
same,Mean fluorescence intensity,[10],3.2
same,Positive cells (%),[10],2.19%
same,Mean fluorescence intensity,[11],2.79
same,Positive cells (%),[11],1.29%
same,Mean fluorescence intensity,[12],3.84
same,Positive cells (%),[12],2.55%
same,Mean fluorescence intensity,[13],2.47
same,Positive cells (%),[13],1.85%
same,Mean fluorescence intensity,[14],3.11
same,Positive cells (%),[14],3.08%
same,Mean fluorescence intensity,[15],2.94
same,Positive cells (%),[15],2.35%
same,Mean fluorescence intensity,[16],2.56
same,Positive cells (%),[16],1.6%
same,Mean fluorescence intensity,[17],2.79
same,Positive cells (%),[17],2.42%
same,Mean fluorescence intensity,[18],3.73
same,Positive cells (%),[18],3.78%
same,Mean fluorescence intensity,[19],3.19
same,Positive cells (%),[19],2.38%
same,Mean fluorescence intensity,[20],2.15
same,Positive cells (%),[20],0.81%
same,Mean fluorescence intensity,[21],3.22
same,Positive cells (%),[21],5.7%
same,Mean fluorescence intensity,[22],2.72
same,Positive cells (%),[22],0.85%
same,Mean fluorescence intensity,[23],2.66
same,Positive cells (%),[23],3.13%
same,Mean fluorescence intensity,[24],3.64
same,Positive cells (%),[24],3.85%
